Reference: patent publication US20210347873A1 (SHANGHAI PHARMAEXPLORER, published 2021)

Columns and labels:
[1] = target: human BLyS (full length, arginine to histidine at position 132) on CHO-K1 cells (human) (UniProt Q9Y275); assay: flow cytometry, CHO-K1 hBLyS cells, antibody 66.7 nM
[2] = target: human BLyS (full length, arginine to histidine at position 132) on CHO-K1 cells (human) (UniProt Q9Y275); assay: flow cytometry, CHO-K1 hBLyS cells, antibody 0.534 nM
[3] = target: human BLyS (full length, arginine to histidine at position 132) on CHO-K1 cells (human) (UniProt Q9Y275); assay: flow cytometry, CHO-K1 hBLyS cells, antibody 0.00427 nM
[4] = target: cynomolgus BLyS (full length, arginine to histidine at position 132) on CHO-K1 cells (cynomolgus); assay: flow cytometry, CHO-K1 cynoBLyS cells, antibody 66.7 nM
[5] = target: cynomolgus BLyS (full length, arginine to histidine at position 132) on CHO-K1 cells (cynomolgus); assay: flow cytometry, CHO-K1 cynoBLyS cells, antibody 0.107 nM
[6] = target: cynomolgus BLyS (full length, arginine to histidine at position 132) on CHO-K1 cells (cynomolgus); assay: flow cytometry, CHO-K1 cynoBLyS cells, antibody 0.534 nM
[7] = target: cynomolgus BLyS (full length, arginine to histidine at position 132) on CHO-K1 cells (cynomolgus); assay: flow cytometry, CHO-K1 cynoBLyS cells, antibody 0.0213 nM
[8] = target: biotinylated hBLyS-ECD (human) (UniProt Q9Y275); assay: blocking ELISA: biotinylated hBLyS-ECD on coated BAFF R, antibody 20 nM
[9] = target: biotinylated hBLyS-ECD (human) (UniProt Q9Y275); assay: blocking ELISA: biotinylated hBLyS-ECD on coated BAFF R, antibody 100 nM
[10] = target: biotinylated hBLyS-ECD (human) (UniProt Q9Y275); assay: ELISA, biotinylated hBLyS-ECD captured on streptavidin; antibody 0.107 nM
[11] = target: biotinylated hBLyS-ECD (human) (UniProt Q9Y275); assay: blocking ELISA: biotinylated hBLyS-ECD on coated BAFF R, antibody 0.0064 nM
[12] = target: biotinylated hBLyS-ECD (human) (UniProt Q9Y275); assay: ELISA, biotinylated hBLyS-ECD captured on streptavidin; antibody 0 nM (blank)
biotinylated hBLyS-ECD [13] = target: T1, biotinylated hBLyS-ECD (human, UniProt Q9Y275 134-285, biotinylated with Biotin-X-X-NHS (molar ratio 7:1); sites not stated); assay: ELISA on captured biotinylated hBLyS-ECD; antibody 2.67 nM
T1 construct: also called biotinylated immunogen; biotinylated hBLvS-ECD

biotinylated hBLyS-ECD [14] = target: T1, biotinylated hBLyS-ECD; assay: ELISA on captured biotinylated hBLyS-ECD; antibody 13.3 nM
biotinylated hBLyS-ECD [15] = target: T1, biotinylated hBLyS-ECD; assay: ELISA on captured biotinylated hBLyS-ECD; antibody 0.0213 nM
biotinylated hBLyS-ECD [16] = target: T1, biotinylated hBLyS-ECD; assay: ELISA on captured biotinylated hBLyS-ECD; antibody 0.00427 nM
biotinylated hBLyS-ECD [17] = target: T1, biotinylated hBLyS-ECD; assay: ELISA on captured biotinylated hBLyS-ECD; antibody 0 nM (background)
biotinylated hBLyS-ECD [18] = target: T1, biotinylated hBLyS-ECD; assay: as above; remark: listed apart in the source
[19] = target: T2, extracellular domain of human BLyS protein (hBLyS-ECD), His-tagged, Ala134-Leu285 (human, UniProt Q9Y275 134-285); assay: SPR (Biacore), antibody captured by anti-human Fc, hBLyS-ECD as analyte
T2 construct: Expressed in HEK293 cells and purified on a Ni column; also called immunogen
Experimental: Affinity constants were determined using a Biacore X100 instrument (purchased from GE Healthcare). Detailed operations and methods referred to the instrument manuals and detailed methods provided by manufacturers, specifically: determining affinity constant using a CM5 chip (Sensor Chip CM5, purchased from GE Healthcare). […] Then 1 M ethanolamine was injected in chip to block the remaining activation sites. After the antibody to be tested (i.e., the human BLyS antibody prepared by Embodiment 2) was captured by chip, 7 different gradient of immunogen dilutions (i.e., hBLyS-ECD) prepared by Embodiment 1 were injected and the binding and dissociation of antigen with antibody was detected by a Biacore instrument. The dissociation constant and binding constant were then fitted by Biacore X100 Evaluation Software 2.0, while the affinity constant was the ratio of dissociation constant to binding constant.
The binding and dissociation between antibody and antigen was detected by Biacore.

biotinylated hBLyS-ECD [20] = target: T1, biotinylated hBLyS-ECD; assay: BAFF R-coated ELISA, biotinylated hBLyS-ECD bound in presence of antibody 0.8 nM
biotinylated hBLyS-ECD [21] = target: T1, biotinylated hBLyS-ECD; assay: BAFF R-coated ELISA, biotinylated hBLyS-ECD bound in presence of antibody 100 nM
biotinylated hBLyS-ECD [22] = target: T1, biotinylated hBLyS-ECD; assay: BAFF R-coated ELISA, biotinylated hBLyS-ECD bound in presence of antibody 0.16 nM
biotinylated hBLyS-ECD [23] = target: T1, biotinylated hBLyS-ECD; assay: BAFF R-coated ELISA, biotinylated hBLyS-ECD bound in presence of antibody 0.0064 nM

Chain of human BLyS (full length, arginine to histidine at position 132) on CHO-K1 cells (human) (Q9Y275 whole entry R130H): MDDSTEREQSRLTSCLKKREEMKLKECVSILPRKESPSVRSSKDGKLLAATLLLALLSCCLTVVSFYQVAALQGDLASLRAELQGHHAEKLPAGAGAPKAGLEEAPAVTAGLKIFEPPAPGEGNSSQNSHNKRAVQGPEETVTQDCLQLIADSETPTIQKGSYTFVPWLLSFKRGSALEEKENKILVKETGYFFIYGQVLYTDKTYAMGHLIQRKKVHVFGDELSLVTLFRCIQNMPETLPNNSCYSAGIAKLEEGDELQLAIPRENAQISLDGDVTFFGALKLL
Chain of biotinylated hBLyS-ECD (human) (Q9Y275 134-285): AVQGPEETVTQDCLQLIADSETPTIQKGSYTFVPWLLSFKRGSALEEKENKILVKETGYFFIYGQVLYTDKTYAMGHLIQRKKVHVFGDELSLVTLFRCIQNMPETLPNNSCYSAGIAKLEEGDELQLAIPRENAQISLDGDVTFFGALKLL
T1 sequence (Q9Y275 134-285): as above
T2 sequence (Q9Y275 134-285): as above
Chain of cynomolgus BLyS (full length, arginine to histidine at position 132) on CHO-K1 cells (cynomolgus) (Q9Y275 other isoform, or with tags, fused parts or gaps limits assumed): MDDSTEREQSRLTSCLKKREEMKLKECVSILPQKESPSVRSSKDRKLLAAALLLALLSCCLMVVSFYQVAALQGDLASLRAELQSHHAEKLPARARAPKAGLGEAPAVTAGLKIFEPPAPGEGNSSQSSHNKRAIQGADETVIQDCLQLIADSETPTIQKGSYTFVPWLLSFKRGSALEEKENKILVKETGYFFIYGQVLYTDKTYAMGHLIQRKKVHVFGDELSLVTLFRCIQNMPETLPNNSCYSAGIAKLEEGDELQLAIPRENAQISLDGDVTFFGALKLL

## mIgG Control (antibody)
[1]
  MFI: 33.6 MFI
[2]
  MFI: 30.7 MFI
[3]
  MFI: 30.9 MFI
[4]
  MFI: 21.6 MFI
[5]
  MFI: 19.7 MFI
[6]
  MFI: 20 MFI
[7]
  MFI: 19.8 MFI
[8]
  OD450 nm: 1.36 OD450 nm
[9]
  OD450 nm: 1.3 OD450 nm
[10]
  OD450 nm: 0.0562
[11]
  OD450 nm: 1.4 OD450 nm
[12]
  OD450 nm: 0.0574

## hIgG Control (antibody)
[1]
  MFI: 52 MFI
[2]
  MFI: 33.4 MFI
[3]
  MFI: 32.3 MFI
[4]
  MFI: 44.2 MFI
[5]
  MFI: 22.8 MFI
[6]
  MFI: 22.6 MFI
[7]
  MFI: 22.4 MFI
[8]
  OD450 nm: 1.06 OD450 nm
[9]
  OD450 nm: 1.22 OD450 nm
[10]
  OD450 nm: 0.0905
[11]
  OD450 nm: 1.14 OD450 nm
[12]
  OD450 nm: 0.103

B1: c8E7D9C7F5 (antibody, V domains shown)
VH: QVQLQQSGVELARPGASVKLSCKASGYTFTSYGISWVKQRTGQALEWIGEIYPRSGNTYYNEKFKGKATLTADKSSSTAYMELRSLTSEDSAVYFCARSGPITTLVATDYGMDYWGQGTSVTVSS
VL: DIVLTQSPASLAVSLGQRATISCRASKSVSTSSYSYMHWYQQKPGQPPKLLIKFASNLESGVPARFSGSGSGTDFTLNIHPVEEEDAATYYCQHSREFPYTFGGGTKLEIK
notes: also called chimeric antibody c8E7D9C7F5
Biotinylated hBLyS-ECD [13]
  OD450 nm: 3.24 OD450 nm
Biotinylated hBLyS-ECD [14]
  OD450 nm: 2.37 OD450 nm
Biotinylated hBLyS-ECD [15]
  OD450 nm: 0.574 OD450 nm
Biotinylated hBLyS-ECD [16]
  OD450 nm: 0.198 OD450 nm
Biotinylated hBLyS-ECD [17]
  OD450 nm: 0.0918 OD450 nm
Biotinylated hBLyS-ECD [18]
  OD450 nm: 0.322 OD450 nm
[19]
  Kd: 2.94 nM
  koff: 0.000714 s⁻¹
  kon: 243000 M⁻¹ s⁻¹
Biotinylated hBLyS-ECD [20]
  OD450 nm: 1.56 OD450 nm
Biotinylated hBLyS-ECD [21]
  OD450 nm: 0.53 OD450 nm
Biotinylated hBLyS-ECD [22]
  OD450 nm: 1.85 OD450 nm
Biotinylated hBLyS-ECD [23]
  OD450 nm: 2.01 OD450 nm

B2: c97A3C2H4 (antibody, V domains shown)
VH: EVKLVESGGGLVQPGGSLKLSCAASGFTFSTYTMSWVRQTPEKRLEWVAYISYGGGSTSYPDTVKGRFTISRDNAKNTLYLQMSSLKSEDTAIYYCTRHVTVVENSMDYWGQGTSVTVSS
VL: DILLTQSPDILSVSPGERVSFSCRASQSIGTSIHWYQQRTNGSPRLLIKYVSESFSGTPSRFSGSGSGTAFTLTINSVESEDIADYYCQQTHSWPWTFGGGTKLEIK
notes: also called chimeric antibody c97A3C2H4
Biotinylated hBLyS-ECD [13]
  OD450 nm: 3.32 OD450 nm
Biotinylated hBLyS-ECD [14]
  OD450 nm: 2.34 OD450 nm
Biotinylated hBLyS-ECD [15]
  OD450 nm: 0.936 OD450 nm
Biotinylated hBLyS-ECD [16]
  OD450 nm: 0.194 OD450 nm
Biotinylated hBLyS-ECD [17]
  OD450 nm: 0.122 OD450 nm
Biotinylated hBLyS-ECD [18]
  OD450 nm: 0.165 OD450 nm
[19]
  Kd: 1.49 nM
  koff: 0.000179 s⁻¹
  kon: 121000 M⁻¹ s⁻¹
Biotinylated hBLyS-ECD [20]
  OD450 nm: 1.47 OD450 nm
Biotinylated hBLyS-ECD [21]
  OD450 nm: 0.474 OD450 nm
Biotinylated hBLyS-ECD [22]
  OD450 nm: 1.79 OD450 nm
Biotinylated hBLyS-ECD [23]
  OD450 nm: 1.96 OD450 nm
